Test results published in patent US20230066984A1, “New Carbon Glycoside Glycosyltransferase and Use Thereof” (CAS Center for Excellence in Molecular Plant Sciences, priority 2020, published 2023).

B1: SbCGT1: C-glycosyltransferase from Sorghum, SEQ ID NO: 6 (protein)
chain: MAPPATKSLGELDGGARPHVMFIPSAGMGHLLPFFRVIAALAAHDVVDISVVTVLPTVSAAEADHFASLFAALPRVSRVDFHLLPFDASSEFPGHDPFLLRWEALRRSAHLFRPLIAGAAGPRVSAVVTDVTLTSHVIPIAKELGVQCHVLFVSCATMLSLAAYTPVHLDKKNKGEHGPGVGVGVGVGDVDIPGVRRIPQSYLPQPLLDLNKLFTKQFIDNGREIINADGFLVNTFDALEPVALAALRDGKVVAGFPPVYAIGPLRSKEEEATTGSPPVAWLDEQPARSVVYVAFGNRNAVSLEQIREIAAGLEASGCRFLWVLKTTTVDRDDTAELTDDVLGEGFLERVQGRGLVTKAWVDQEAVLKHASVGLFLSHSGWNSVTEAAAAGVPLLAWPRGGDHRVNATVVVSGGVGVWMEQWSWDGEDWLVTGEEIGKKVKEVMSDAAVRARATRTGEEAAKAVAEGGTSYRSMQKFISSLKAHCSP
modifications: Sorghum bicolor
B2: OsCGT: C-glycosyltransferase from Japonica rice, SEQ ID NO: 19 (protein)
chain: MPSSGDAAGRRPHVVLIPSAGMGHLVPFGRLAVALSSGHGCDVSLVTVLPTVSTAESKHLDALFDAFPAVRRLDFELAPFDASEFPSADPFFLRFEAMRRSAPLLGPLLTGAGASALATDIALTSVVIPVAKEQGLPCHILFTASAAMLSLCAYFPTYLDANAGDGGGVGDVDIPGVYRIPKASIPQALHDPNHLFTRQFVANGRSLTSAAGILVNTFDALEPEAVAALQQGKVASGFPPVFAVGPLLPASNQAKDPQANYMEWLDAQPARSVVYVSFGSRKAISGEQLRELAAGLETSGHRFLWVVKSTVVDRDDAAELGELLGEGFLKRVEKRGLVTKAWVDQEEVLKHESVALFVSHCGWNSVTEAAASGVPVLALPRFGDQRVNSGVVARAGLGVWADTWSWEGEAGVIGAEEISEKVKAAMADEALRRKAASLAKAAAKAVAGGGSSHRCLVEFARLCQGGTCRTN
modifications: Oryza Sativa japonica
B3: OsCGT2: C-glycosyltransferase from Japonica rice, SEQ ID NO: 5 (protein)
chain: MCSAATPNSGDVRATPGSSRPHVVLLPSAGMGHLVPFTRLAAALCSGHGCDVSLVAAVPTVSSAEARHLAAHFTAFPAVRRLELDLASLDVSEFAGADPFYVRYEAIRRSASLLAPLLAGGASAAASALVADIALASVVIPVAKDLRLPCYVFFTASATMFSFLAYLPTYLDANAGGGHAIGDVDVPGVCRVPTSSVPQALHDPDDIFTRQFIANARSLANADGLVVNAFDALEPEAVAALRQGTVAAGLPPVFAVGPLSPAPIPAKDSGSYLPWLDAQPARSVVYVSFGSRKALPRDQLSELAAGLEASGHRFLWVVKGAVVDRDDAGELTDLLGEAFLQRIHGRGLVTMAWVRQEEVLNHPSVGLFISHCGWNSVTEAAASGVPVVAWPRFADQRVNAGVVARAGIGVWVDTWSWEGEDDGVVSAEDIAGKVRSAMADEGVRKAAASVREAAARAVAAGGSSYRSLAELVRRCRDGLVITNGM
modifications: Oryza Sativa japonica
B4: PhCGT2: C-glycosyltransferase from moso bamboo, SEQ ID NO: 4 (protein, listed as Phyllostachys edulis)
chain: MASRAMPSSSDRTGGAPRVVLLPSAGMGHLVPFGRLAVALSSGHACDVSVVTVLPTVSSAESKHLQGLFDAFPAVRRLDLHLAPFDASEFSDADPFYVRYEAVRRSAPLLGPLLADADASALVADIALASVVIPVAKELLIPCYIFFTASATMFSLLAYFPTYLHSNAGHSIGDVDVPGVYRIPMSSIPQALHDPNNLFTQQFVANGRSLAEADGLLVNTFDAFEPEAVTALRHGTVAPGFPPVFALGPLSPVGFPAGEAARESGNYTTWLDAQPARSVVYVSFGSRKALLRDQLSELAAGLEASGCRFLWVVKGTVVDRDDDRELRELLGEVFLQRVNGRALVTKAWVEQEEVLKHPAVGLFISHCGWNSVTEATVSGVPVLAWPRFADQRVSAGVVARRGLGVWVERWSWEGEERVVTGDEIAEKVKSVLADETLRKNSTMVREAAAAAVATGGTSYRSLAKFVRRCST
B5: TaCGT1-A: C-glycosyltransferase from wheat, SEQ ID NO: 8 (protein, listed as Triticum aestivum)
chain: MPTSGDGPTSQPHVVLLPSAGMGHLVPFSRLAVALSSAHGCDVSLVTVLPTVSSAESSHLEALFGAFPAVRRLEFHLADFDASEFPNADPFFLRFEAMRRSAPLLLGPLLARASATALVTDIALSSVVIPVAKQLRLPCYVLFTASAAMLSLCVHFPAYLDANGNGLVGDVDIPGVYQIPKASVPQALHDPKHLFTRQFVANGRELAKSDGVLVNSFDAFEPEAIAALREGAVSAAGFFPPVFSVGPLAPVSFPAGNNNRADYIQWLEAQPARSVVYVSFGSRKAVARDQLRELAAGLEASGHRFLWVVKSTVVDRDDDADLGELLGEGFLERVQGRGMVTKGWVEQEDVLKQESVGLFISHCGWNSVTEAAAGGLPVLAWPRFGDQRVNAGVVARSGLGVWVDSWSWEGEEGVVSGESIAEKVKAVMGDEIARNKAVSVRDAAAKAVADGGTSYRNLARFAQRCRDGRVRE
B6: ZmCGT: C-glycosyltransferase from maize, SEQ ID NO: 20 (protein)
chain: MAANGGDHTSARPHVVLLPSAGMGHLVPFARLAVALSEGHGCNVSVAAVQPTVSSAESRLLDALFVAAAPAVRRLDFRLAPFDESEFPGADPFFLRFEATRRSAPLLGPLLDAAEASALVTDIVLASVALPVARERGVPCYVLFTSSAAMLSLCAYFPAYLDAHAAAGSVGVGVGNVDIPGVFRIPKSSVPQALHDPDHLFTQQFVANGRCLVACDGILVNTFDAFEPDAVTALRQGSITVSGGFPPVFTVGPMLPVRFQAEETADYMRWLSAQPPRSVVYVSFGSRKAIPRDQLRELAAGLEASGKRFLWVVKSTIVDRDDTADLGGLLGDGFLERVQGRAFVTMGWVEQEEILQHGSVGLFISHCGWNSLTEAAAFGVPVLAWPRFGDQRVNAALVARSGLGAWEEGWTWDGEEGLTTRKEVAKKIKGMMGYDAVAEKAAKVGDAAAAAIAKCGTSYQSLEEFVQRCRDAERK
modifications: Zea mays
B7: PpCGT1: C-glycosyltransferase from high knot bamboo, SEQ ID NO: 3 (protein, listed as Phyllostachys prominens)
chain: MPTSGSRTGGRPHVILLPSAGMGHLVPFSRLAVALSSGHGCDVSVVAVLPTVSAAESRHLQGLLDASPAVRRLDLHLAPFDESEFPGADPFFLRFEAMRRSAPLLGPLLADTGESALVTDIALASVVIPVAKEIHLPCYVLFTASAAMLSFCAYFPTYLDTNAGRVVGDVDIPGVYRIPKASIPQALHDRNHLFTRQFVANGQDLAKADGVLVNTFDALELEAVTALRQGSVAAGFPPVFSVGPLVTVNLPAGEAAKESGNDYMYWLDAQPARSVVYVSFGSRKAISRNQVRELAVGLEASGQRFLWVVKSTVVDRDDSAELSELLDEGFLERVQGRGLVTKAWVEQEEVLKHESIGLFISHCGWNSVTEAAASGVPVLAWPRFGDQRVNAGVVARGGLGVWVERWSWEGEEGVVSGEEIAEKVKAVMADETVRKKAASVGEAAVKEFADGGTSYRSLTEFVRRCRDLAVLD
B8: SbCGT2: C-glycosyltransferase from Sorghum, SEQ ID NO: 7 (protein)
chain: MAPSAMPASGDHTGATPHVVLLPSAGMGHLVPFARLAVALSEGHGCDVSFAAVLPTVSSAESRHLRALFAAAPAVRRLDFRLAPFDESQFPGADPFFLRFEALRRSAPLLGPLLDAAQASALVTDIVLASVVLPVAKARGVPCYVLFTSSAAMLSLCAYFPAHLDANAAAGGGRLGVGDVDIPGVYRIPKSSVPQALHDPKHLFTQQFVANGRGLVAADGILVNTFDAFEPDAITALRQGSVVSDFPPVFAVGPLQPVRFQVAEKPAHYMRWLSAQPARSVVYVSFGSRKAISTDQLRELAAGLEASGQRFLWVVKSTVVDRDDAADLADLLGDGFLERVQGRAFVTKGWVEQEEILQHGSVGLFISHCGWNSVTEAAAFGVPVLAWPRFGDQRVNAAVVARGGLGAWEERWTWDGEKGLVTGEEVAEKINAVVGNDVVARKAARVGDAAAAAAGKGGTSYQSLADFVGRCRDAGW
modifications: Sorghum bicolor

Test: In vitro functional identification of C-glycosyltransferases by HPLC, phloretin as glycosyl receptor
Type: biochemical
Details: 0.1 mM phloretin, 0.3 mM UDP glucose, crude enzyme, 37° C., 2 h, HPLC (FIG. 1A)
Protocol: The recombinant plasmid was transformed into competent cells of Escherichia coli BL21 (DE3), and cultured overnight at 37° C. in solid LB medium (kanamycin 50 μg/mL). Single colony was transferred to a 2 mL LB liquid medium (containing 50 μg/ml kanamycin) and incubated overnight. The bacterial fluid was transferred to a new 100 ml LB liquid medium with antibiotics and incubated at 37° C. and 250 r/min until OD600 reached 0.5-0.6. The culture was cooled down to 16° C. in a water bath. Then inducer IPTG was added at a final concentration of 0.1 mM. The mixture was cultured at 16° C. for low temperature induction and 180 r/min for 20 h. The BL21(DE3) recombinant strain carrying the pET28a empty plasmid was used as a blank control, and the culture operation was the same as above. The bacteria were harvested by centrifugation (6000 r/min, 5 min), re-suspended in 1 mL of lysis buffer Buffer A (20 mM Tris-HCl, pH 8.0; 100 mM NaCl), and DNase was added to a final concentration of 5 μg/mL, Mg^2+ to a final concentration of 2 mM; protease inhibitor PMSF to a final concentration of 1 mM; the bacteria were incubated on ice for 30 min and then sonicated; refrigerated centrifugation (10,000 rpm, 30 min, 4° C.), filtered through a 0.2 µm filter membrane to obtain the supernatant crude enzyme solution, and added 20% glycerol for cryopreservation (−20° C.).
The in vitro enzyme catalytic assay system is 100 μL. The reaction system includes: 0.1 mM glycosyl receptor (phloretin or 2-hydroxynaringenin), 0.3 mM UDP glucose, 25 μL supernatant crude enzyme solution, and Buffer A is used to make up the volume to 100 μL, and react at 37° C. for 2 h. After the reaction was completed, an equal volume of methanol was added to terminate the reaction, and HPLC was used for product analysis. HPLC detection conditions: chromatographic column: reverse phase C18 column [SilGreen ODS column (ø 4.6×250 mm)], detection wavelength 280 nm; mobile phase: acetonitrile (0.1% formic acid)-water (0.1% formic acid) mixture gradient elution, with increased ratio from 5:95 to 100:0 within 0 to 20 min, and the flow rate was 1 mL/min.

| Molecule | 5′ C-glycosylation of 3′-glycosylated phloretin giving phloretin-3′,5′-C-diglucoside | conversion of substrate phloretin to C-glycosylated product (Nothofagin) |
| --- | --- | --- |
| B1 | can catalyze the glycosylation of the 3′-glycosylated phloretin at the 5′ position | can convert the substrate phloretin to a product having a shorter retention time |
| B2 | can catalyze the glycosylation of the 3′-glycosylated phloretin at the 5′ position | can convert the substrate phloretin to a product having a shorter retention time |
| B3 |  | can convert the substrate phloretin to a product having a shorter retention time |
| B4 |  | can convert the substrate phloretin to a product having a shorter retention time |
| B5 | can catalyze the glycosylation of the 3′-glycosylated phloretin at the 5′ position | can convert the substrate phloretin to a product having a shorter retention time |
| B6 | can catalyze the glycosylation of the 3′-glycosylated phloretin at the 5′ position | can convert the substrate phloretin to a product having a shorter retention time |
| B7 |  | can convert the substrate phloretin to a product having a shorter retention time |
| B8 |  | can convert the substrate phloretin to a product having a shorter retention time |
